Results: patent publication US20260008815A1, “CYCLIC PEPTIDE OR SALT THEREOF, AND USES THEREOF” (FUJIFILM Corporation, priority 2023, published 2026)
Numbered stars: 1 amine (or outer) side, 2 acyl side, 3 side chain; on linkers, the order of the positions; unused ones are H or OH. Bridge positions count the residues as written; N and C are the ends. Ends that are not written are not given here. acetyl = acetyl (haloacetyl before ring closure) on the side-chain amine, O=C(C[*:1])[*:2]; COCH2 = acetyl group that carries the bridge

These substances were tested against T1, Recombinant Human FGFR2 alpha (IIIc) Fc Chimera Protein (Homo sapiens, UniProt P21802) (assay: ELISA binding affinity of enzymatically synthesized peptide to FGFR). Details: ELISA luminescence signal at 10 nmol/L peptide, SEQ ID NO: 47 at 10 nmol/L standardized to 1; enzyme synthesis product.
T1 construct: Fc (chimera); purchased R&D systems 712-FR-050
T1 sequence (P21802 with tags, fused parts or gaps limits assumed): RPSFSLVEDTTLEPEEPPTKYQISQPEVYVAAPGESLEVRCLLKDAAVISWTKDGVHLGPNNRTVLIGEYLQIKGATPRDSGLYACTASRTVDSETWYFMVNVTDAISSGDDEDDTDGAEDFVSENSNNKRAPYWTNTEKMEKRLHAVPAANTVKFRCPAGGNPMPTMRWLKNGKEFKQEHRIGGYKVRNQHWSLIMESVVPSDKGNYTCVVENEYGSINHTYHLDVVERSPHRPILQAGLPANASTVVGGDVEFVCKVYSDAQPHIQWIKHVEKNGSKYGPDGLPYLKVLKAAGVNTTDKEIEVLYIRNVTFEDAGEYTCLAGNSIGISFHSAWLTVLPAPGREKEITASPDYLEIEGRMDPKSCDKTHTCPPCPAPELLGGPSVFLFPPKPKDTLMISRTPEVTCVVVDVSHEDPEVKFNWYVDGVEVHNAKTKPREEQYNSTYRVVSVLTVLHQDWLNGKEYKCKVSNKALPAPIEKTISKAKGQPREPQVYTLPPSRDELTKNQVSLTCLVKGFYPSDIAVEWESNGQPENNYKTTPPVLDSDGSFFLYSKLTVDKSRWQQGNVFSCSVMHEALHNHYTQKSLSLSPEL
Procedure, shortened: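 FGFR2 alpha (IIIc) Fc chimera (5 ng/well) was immobilized, and Myc-tagged peptide was bound 3 h at room temperature, then detected with anti-Myc antibody (2 h) and chemiluminescent substrate. Signal was corrected against FGFR-free wells. Score A–D was the luminescence at 10 nmol/L peptide, normalized to cyclic peptide SEQ ID NO: 47.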

Row | Evaluation result of binding affinity to FGFR | Substance
1 | B (0.5 or more and less than 0.7) | 403 (ACRRANWIHPIQWFFFHVYK(COCH2)H; thioether 2-20 (inferred)) [compound 403]
2 | A (0.7 or more) | 352 (YCEENYLMPEQYQYFIYFK(COCH2)Y; thioether 2-19) [compound 352]
3 | A (0.7 or more) | 304 (YCEENYLDPEQYQYFIRFK(COCH2)Y; thioether 2-19 (inferred)) [compound 304]
4 | A (0.7 or more) | 284 (YCEENYLDPEQYQYFQYFK(COCH2)Y; thioether 2-19) [compound 284]
5 | A (0.7 or more) | 402 (PCEVYNYWYPTQWFFFTQFK(COCH2)K; thioether 2-20 (inferred)) [compound 402]
6 | A (0.7 or more) | 392 (YCHENYLDPEQYQYFHYFK(COCH2)Y; thioether 2-19 (inferred)) [compound 392]
7 | A (0.7 or more) | 347 (MCEENYLDPEQYQYFIYFK(COCH2)Y; thioether 2-19) [compound 347]
8 | C (0.1 or more and less than 0.5) | 425 (GCGYTQLHYQHLFAWLHARK(COCH2)V; thioether 2-20 via acetyl) [compound 425]

Further lines, the substance ahead of its results:

Row | Substance | Evaluation result of binding affinity to FGFR
9 | 222 (YCEENYLDLEQYQYFIYFK(COCH2)Y; thioether 2-19 (inferred)) [compound 222] | A (0.7 or more)
10 | 122 (QCENWVNSTQFEFFWQYK(COCH2)T; thioether 2-18 (inferred)) [compound 122] | B (0.5 or more and less than 0.7)
11 | 254 (YCEENYLDPEQFQYFIYFK(COCH2)Y; thioether 2-19 (inferred)) [compound 254] | A (0.7 or more)
12 | 127 (YCPYNFYNIIQFHYFLTYK(COCH2)T; thioether 2-19 (inferred)) [compound 127] | A (0.7 or more)
13 | 100 (QCPQHFINPVQWRYFQHYK(COCH2)N; thioether 2-19 (inferred)) [compound 100] | C (0.1 or more and less than 0.5)
14 | 152 (YCPENYLDPEQYQYFIYFK(COCH2)Y; thioether 2-19 (inferred)) [compound 152] | A (0.7 or more)
15 | 45 (TCPQNFRDELQFTYFTQYKY; Description of Artificial Sequence: Cyclic peptide) [compound 45] | A (0.7 or more)
16 | 111 (QCDQEFYLALYAWTLRSYK(COCH2)L; thioether 2-19 (inferred)) [compound 111] | C (0.1 or more and less than 0.5)
17 | 59 (KCPQNFIAPVQWRYFQHYK(COCH2)N; thioether 2-19 (inferred)) [compound 59] | B (0.5 or more and less than 0.7)
18 | 81 (SCPQNFINPVQWRYFQHYK(COCH2)N; thioether 2-19 (inferred)) [compound 81] | A (0.7 or more)
19 | 109 (DCFINELQYFYIQQYK(COCH2)K; thioether 2-16 (inferred)) [compound 109] | B (0.5 or more and less than 0.7)
20 | 46 (SCIQQNYFWQYVFERYRYKQ; Description of Artificial Sequence: Cyclic peptide) [compound 46] | B (0.5 or more and less than 0.7)
21 | 187 (YCEENFLDPEQYQYFIYFK(COCH2)Y; thioether 2-19 (inferred)) [compound 187] | A (0.7 or more)
22 | 235 (YCEENYLDHEQYQYFIYFK(COCH2)Y; thioether 2-19 (inferred)) [compound 235] | A (0.7 or more)
23 | 208 (YCEENYLLPEQYQYFIYFK(COCH2)Y; thioether 2-19 (inferred)) [compound 208] | C (0.1 or more and less than 0.5)
24 | 220 (YCEENYLHPEQYQYFIYFK(COCH2)Y; thioether 2-19 (inferred)) [compound 220] | A (0.7 or more)
